Target: full-length Cbln1 (Cbln1FL) (human) (UniProt P23435)
Test: ITC

Chain of full-length Cbln1 (Cbln1FL) (human) (P23435 22-193): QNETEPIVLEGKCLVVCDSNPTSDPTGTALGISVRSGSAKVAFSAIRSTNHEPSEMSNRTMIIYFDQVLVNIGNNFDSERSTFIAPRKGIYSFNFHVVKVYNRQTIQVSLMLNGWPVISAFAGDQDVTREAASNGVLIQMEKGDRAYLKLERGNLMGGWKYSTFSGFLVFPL

Kd: 43.5 nM
stoichiometry N (β-NRX1(+4) per Cbln1 hexamer): 1
Substance: β-neurexin-1 with spliced sequence #4 (β-NRX1(+4)) (domain or fragment)

Source: PMC5291321
